Results on one molecule are retold here after publication PMC6484116, “The NifZ accessory protein has an equivalent function in maturation of both nitrogenase MoFe protein P-clusters” (The Journal of Biological Chemistry, 2019).

Assay [1] addresses T1, MoFe protein^HisΔZ (His-tagged nitrogenase MoFe protein produced in a nifZ-deletion strain) (Azotobacter vinelandii, UniProt P07328 1-492; P07329 1-523).
T1 construct: nitrogenase MoFe protein α-subunit (NifD), Azotobacter vinelandii; polyhistidine-encoding tag incorporated into the N-terminal coding region; nitrogenase MoFe protein β-subunit (NifK), Azotobacter vinelandii; A mixed population: αβ-units hold either an immature P-cluster without FeMo-cofactor or a mature P-cluster with FeMo-cofactor; also called MoFe^His protein; α2β2 heterotetramer; source: A. …
T1 sequence (looked up) 1: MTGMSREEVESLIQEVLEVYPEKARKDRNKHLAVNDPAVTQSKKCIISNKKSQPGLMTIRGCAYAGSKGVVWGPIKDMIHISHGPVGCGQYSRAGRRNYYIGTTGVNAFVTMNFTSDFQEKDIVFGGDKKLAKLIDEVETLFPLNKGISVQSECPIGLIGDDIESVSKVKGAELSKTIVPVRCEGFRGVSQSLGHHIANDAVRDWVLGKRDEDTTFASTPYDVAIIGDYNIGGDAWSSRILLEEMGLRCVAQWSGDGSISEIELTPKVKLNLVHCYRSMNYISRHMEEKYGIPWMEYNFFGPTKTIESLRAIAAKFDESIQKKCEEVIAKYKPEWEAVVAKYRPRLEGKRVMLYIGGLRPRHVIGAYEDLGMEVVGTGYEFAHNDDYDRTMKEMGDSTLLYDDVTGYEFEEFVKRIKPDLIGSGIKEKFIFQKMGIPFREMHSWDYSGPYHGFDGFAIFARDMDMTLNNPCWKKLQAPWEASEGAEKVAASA
T1 sequence (looked up) 2: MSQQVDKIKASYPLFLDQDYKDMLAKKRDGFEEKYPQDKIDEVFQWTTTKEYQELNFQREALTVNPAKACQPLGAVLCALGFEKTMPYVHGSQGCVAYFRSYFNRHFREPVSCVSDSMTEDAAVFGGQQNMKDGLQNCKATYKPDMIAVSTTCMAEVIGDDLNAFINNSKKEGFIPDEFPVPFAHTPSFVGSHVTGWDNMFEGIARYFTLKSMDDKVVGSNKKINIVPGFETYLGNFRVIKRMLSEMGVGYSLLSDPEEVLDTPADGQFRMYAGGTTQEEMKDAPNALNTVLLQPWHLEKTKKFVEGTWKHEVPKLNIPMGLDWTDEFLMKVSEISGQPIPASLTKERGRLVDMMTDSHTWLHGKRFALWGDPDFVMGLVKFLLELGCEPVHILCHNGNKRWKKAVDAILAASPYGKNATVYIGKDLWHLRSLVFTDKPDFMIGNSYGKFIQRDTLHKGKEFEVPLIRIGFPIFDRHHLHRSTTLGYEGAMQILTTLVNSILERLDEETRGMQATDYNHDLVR
Description: affinity purification with mass spectrometry; MoFe protein^HisΔZ isolated by IMAC from extract of cells derepressed 4 h, then Q-Sepharose anion exchange (200-500 mM NaCl gradient); fractions on SDS-PAGE, Coomassie, densitometry; bands identified by MALDI. The settings on record: partners not purified.

The target in assay [2] is T2, MoFe protein^StrΔZ (Strep-tagged nitrogenase MoFe protein produced in a nifZ-deletion strain) (Azotobacter vinelandii, UniProt P07328 1-492; P07329 1-523).
T2 construct: nitrogenase MoFe protein α-subunit (NifD), Azotobacter vinelandii; Strep-encoding tag incorporated into the N-terminal coding region; nitrogenase MoFe protein β-subunit (NifK), Azotobacter vinelandii; A mixed population: αβ-units hold either an immature P-cluster without FeMo-cofactor or a mature P-cluster with FeMo-cofactor; also called MoFe^StrΔZ; α2β2 heterotetramer; source: A. vinelandii …
T2 sequence (looked up) 1: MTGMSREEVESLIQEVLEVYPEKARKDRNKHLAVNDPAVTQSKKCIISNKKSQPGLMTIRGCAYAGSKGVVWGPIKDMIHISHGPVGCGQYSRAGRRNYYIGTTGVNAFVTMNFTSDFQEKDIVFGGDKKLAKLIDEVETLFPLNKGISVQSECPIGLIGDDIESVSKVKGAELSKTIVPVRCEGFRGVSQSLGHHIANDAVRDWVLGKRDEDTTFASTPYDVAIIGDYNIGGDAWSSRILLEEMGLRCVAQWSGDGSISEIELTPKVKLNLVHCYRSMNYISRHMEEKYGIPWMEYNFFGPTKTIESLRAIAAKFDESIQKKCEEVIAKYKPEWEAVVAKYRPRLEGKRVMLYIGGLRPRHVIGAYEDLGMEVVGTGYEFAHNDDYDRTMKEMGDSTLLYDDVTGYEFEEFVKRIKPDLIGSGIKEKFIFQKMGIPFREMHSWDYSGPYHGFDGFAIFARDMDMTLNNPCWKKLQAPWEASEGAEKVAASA
T2 sequence (looked up) 2: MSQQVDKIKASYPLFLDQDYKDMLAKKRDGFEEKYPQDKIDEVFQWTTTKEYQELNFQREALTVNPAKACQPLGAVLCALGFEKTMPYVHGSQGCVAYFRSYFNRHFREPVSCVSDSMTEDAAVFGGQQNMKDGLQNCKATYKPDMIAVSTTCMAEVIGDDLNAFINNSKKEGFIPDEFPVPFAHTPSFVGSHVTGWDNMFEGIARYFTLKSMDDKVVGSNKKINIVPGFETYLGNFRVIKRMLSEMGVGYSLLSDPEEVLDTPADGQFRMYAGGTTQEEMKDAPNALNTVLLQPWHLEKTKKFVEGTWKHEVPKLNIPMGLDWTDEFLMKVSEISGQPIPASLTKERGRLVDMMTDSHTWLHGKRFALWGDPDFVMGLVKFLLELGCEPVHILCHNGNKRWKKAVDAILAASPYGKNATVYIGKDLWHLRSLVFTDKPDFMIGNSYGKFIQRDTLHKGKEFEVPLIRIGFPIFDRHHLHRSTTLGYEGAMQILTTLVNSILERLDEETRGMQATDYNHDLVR
The assay is described as follows: affinity purification with mass spectrometry; MoFe protein^StrΔZ isolated on Strep-Tactin (STAC) from cell extract, then Q-Sepharose anion exchange (200-500 mM NaCl gradient); fractions on SDS-PAGE, Coomassie, densitometry; bands identified by MALDI; also after incubating the extract 0-240 min with 36 mM Na2S2O4 at 30 °C (NifW slowly dissociates). Particulars: partners not purified.

Where “and” joins values, the source holds several entries; their conditions need not be identical. Equal entries are not always repeated.

B1: NifW (accessory protein, endogenous) (natural protein, UniProt P14888 1-115, looked up)
chain: MTVQPFSPDSDLTLDEAMDELVSAEDFLEFFGVPFDQDVVHVNRLHIMQRYHDYLSKAGDLDEHDDQARYAVFQKLLARAYLDFVESDALTEKVFKVFRMHEPQKTFVSIDQLLS
notes: NifW, Azotobacter vinelandii; also called NifW assembly factor; source: endogenous, A. vinelandii DJ1182 or DJ2111 cell extract; co-purified with MoFe protein
Consider B1, for which the “stoichiometry N” value in assay [1] was ~1 NifW per α2β2 heterotetramer and 2 NifW per α2β2 heterotetramer; in assay [2], ~1 NifW per α2β2 heterotetramer and ~2 NifW per α2β2 heterotetramer.
